Our source for the screen value values is PMC10746540.

Sequences and labels used below:
B1: PYR1*^MANDI, pBD two-hybrid fusion [not stated] / HAB1*, pACT two-hybrid fusion [not stated] (parent)
chain 1: MPSELTPEERSELKNSIAEFHTYQLDPGSCSSLHAQRIHAPPELVWSIVRRFDKPQTHRHFIKSCSVEQNFEMRVGCTRDIIVISGLPANTSTERLDILDDERRVTGASIIGGEHRLTNYKGVTTVHRFEKENRIWTVVLESYVVDMPEGNSEDDTRIVVDDVVKLNLQKLATVAEAMARNSGDGSGSQVT
chain 2: MEEMTPAVAMTLSLAANTMCESSPVEITQLKNVTDAADLLSDSENQSFCNGGTECTMEDVSELEEVGEQDLLKTLSDTRSGSSNVFDEDDVLSVVEDNSAVISEGLLVVDAGSELSLSNTAMEIDNGRVLATAIIVGESSIEQVPTAEVLIAGVNQDTNTSEVVIRLPDENSNHLVKGRSVYELDCIPLWGTVSIQGNASEMEAAFAVSPHFLKLPIKMLMGDHEGMSPSLTHLTGHFFGVYDGHGGHKVADYCRDRLHFALAEEIERIKDELCKRNTGEGRQVQWDKVFTSCFLTVDGEIEGKIGRAVVGSSDKVLEAVADETVGSTAVVALVCSSHIVVSNCGDSRAVLFRGKEAMPLSVDHKPDREDEYARIENAGGKVIQWQGARVFGRLAMSRSIGDRYLKPYVIPEPEVTFMPRSREDECLILASDGLWDVMNNQEVCEIARRRILMWHKKNGAPPLAERGKGIDPACQAAADYLSMLALQKGSKDNISIIVIDLKAQAKFKTRT

In the first assay the parent is B1. Briefly: β-gal-based Y2H assay. Conditions: with HAB1*, ligand: disulfoton.
chain 1 M147V: the screen value worked out at 100 µM.

Staying with this assay, now noted: with HAB1*, ligand: azinphos-ethyl.
Turning to chain 1 V83W I110Y R116S V164Y, the screen value amounted to 0.01 µM. With chain 1 V83W I110Y R116S, the screen value came to 0.25 µM.

On to chain 1 V83W R116S, for which the screen value was found to be 0.01 µM.

The same assay, now with this note: with HAB1*, ligand: chlorofenvinphos.
On to chain 1 G122Q, for which the screen value was determined as 12.5 µM.

The assay is the same for the next values; noted with them: with HAB1*, ligand: azinphos.
chain 1 V83W R116S: the screen value came to 10 µM.

The assay is the same for the next values; noted with them: with HAB1*, ligand: pirimiphos.
For the variant chain 1 S92M, the screen value came to 25 µM.

The same assay, now with this note: with HAB1*, ligand: malathion.
chain 1 V83A: the screen value was determined as 100 µM.

Still in this assay, the particulars now being: with HAB1*, ligand: diazinon.
For the variant chain 1 A108V, the screen value stood at 100 µM.
